B1: human DUSP13 protein (protein)
chain: MDSLQKQDLRRPKIHGAVQASPYQPPTLASLQRLLWVRQAATLNHIDEVWPSLFLGDAYAARDKSKLIQLGITHVVNAAAGKFQVDTGAKFYRGMSLEYYGIEADDNPFFDLSVYFLPVARYIRAALSVPQGRVLVHCAMGVSRSATLVLAFLMICENMTLVEAIQTVQAHRNICPNSGFLRQLQVLDNRLGRETGRF
Chain of Akt1 (P31749 whole entry): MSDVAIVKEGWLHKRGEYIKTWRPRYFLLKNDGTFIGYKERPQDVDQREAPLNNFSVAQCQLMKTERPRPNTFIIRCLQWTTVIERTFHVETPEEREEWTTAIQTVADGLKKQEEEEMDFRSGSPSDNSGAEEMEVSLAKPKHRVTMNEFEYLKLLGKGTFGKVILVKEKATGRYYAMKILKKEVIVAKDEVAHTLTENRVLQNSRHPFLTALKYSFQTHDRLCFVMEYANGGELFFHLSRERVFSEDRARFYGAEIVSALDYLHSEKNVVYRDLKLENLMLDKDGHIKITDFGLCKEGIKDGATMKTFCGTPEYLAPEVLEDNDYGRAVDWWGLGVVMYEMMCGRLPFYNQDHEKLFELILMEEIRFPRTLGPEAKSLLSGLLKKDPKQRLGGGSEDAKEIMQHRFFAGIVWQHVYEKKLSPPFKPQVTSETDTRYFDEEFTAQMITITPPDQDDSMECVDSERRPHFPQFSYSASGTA
As to B1, the “dephosphorylation of phosphorylated Ser-473 (FIG. 15, right, second panel from the top)” value with Akt2 and with Akt1 was “directly dephosphorylates the phosphorylated Ser-473 thereof” throughout.

Source of the values: US20090291439.
